Measurements published in article PMC6825194.

Experiments:
[1] = target: CCM1-K2; test: ITC; GST-tagged fragments from PTB domains and HIS-tagged NPXY motifs, purified; Table 5 heads CCM1-K8 and CCM1-K2 as 'Ligand'; conditions not stated (as in ref. 20)
[2] = target: CCM1-K8; test: as above
[3] = target: CCM1-K8; test: BLI; GST-tagged fragments from PTB domains and HIS-tagged NPXY motifs, purified; Table 5 heads CCM1-K8 as 'Ligand'; who was immobilised and the conditions are not stated (as in ref. 20)

Kd [1]: 6.45 µM | Kd [2]: 1.99 µM | Kd [3]: 4.06 µM
Substance: CCM2-EX6 (from UniProt Q9BSQ5 1-444) (domain or fragment)
